From patent US20230242902A1, “A HIGHLY ERROR-PRONE […] R[…] FOR TARGETED CONTINUOUS EVOLUTION IN VIVO” (The Regents of the University of California, priority 2017, published 2023)

B1: I777K, F968C (protein)
chain: MDYKDKALNDLRNVYADFDSLPLDFRQILIKDRATLLQKEDVEKKILERQEDAKKYAEYLKQSEIPERISLPNIKRHKGVSISFEETSEDMVLEPRPFIFDGLNIRCFRRETIFSLKNKILNMVKESSSFKNVSRQSVSFMYFKIFNKGKVIASTKSVNIYEDKIDERLEDLCNNFDDVLKKIIDVTYGYESLFVSETYSYVIFYAKSIYFPQPRCVNNWGNNIPNILTFDSFKLFTANKNNVSCIKQCSRFLWQKDFNTLEEMIEYKNGNICIVTPQLHINDVRDIKSFNDIRLYSESPIKTFSVIDNTITYLFYFKEHLGVIFNITKSRHDRRVTKFSPLSKFSDVKNITVCFDIESYFDPEKESNQVNIPFICCASIIYNKVIGNIVDFEGRDCVAQMIEYVVDICGELNISSVELIAHNGGGYDFHYILSSMYNPAAIKNILIRNNSFISFNFAHDGVKFSVKDSYSFLLCSLANASKAFLNEETFKKTDFPHHDLKTADDLYKVYKEWSSVNTEINHVVEKEKLLITSEHIVNFTKNDKSKTLIEWSKDYCRNDVLVLSKVWLEFKNAVEDIFNCELVDQTMTLAGLSYKLFQANMPFDVELRHPNKEDYFNMREALIGGRCISVNGIYKDVLCLDVKSLYPASMAFYDQPYGSFKRVSSRPKDELGIYYVRVTPNRNNKSNFFPIRSHNKITYNNFEESTYIAWYTNVDIDIGLSEGHNIEYIPFDSYGNIGYSWSKKGKIFEKYIKDVLYKLKIKYEKQNNKVKRNVIKKIMNSLWGKFAQKWVNFEYFIKSEDDIDFESEEAYKIWDTDFMLIKKIKESTYSSKPIQNGVFTLSWARYHMKSIWDAGAKEGAECIYSDTDSIFVHKEHFKKNAKFMLNGLKVPIIGSEVGQLELECEFDKLLCAGKKQYMGFYTYFQDGKPCIKEKKRFKGIPSNYIIPELYAHLLSGADKEAKIQFLKCRREWGSVKGYIENKTVKAT
B2: V774I, F871Y (protein)
chain: MDYKDKALNDLRNVYADFDSLPLDFRQILIKDRATLLQKEDVEKKILERQEDAKKYAEYLKQSEIPERISLPNIKRHKGVSISFEETSEDMVLEPRPFIFDGLNIRCFRRETIFSLKNKILNMVKESSSFKNVSRQSVSFMYFKIFNKGKVIASTKSVNIYEDKIDERLEDLCNNFDDVLKKIIDVTYGYESLFVSETYSYVIFYAKSIYFPQPRCVNNWGNNIPNILTFDSFKLFTANKNNVSCIKQCSRFLWQKDFNTLEEMIEYKNGNICIVTPQLHINDVRDIKSFNDIRLYSESPIKTFSVIDNTITYLFYFKEHLGVIFNITKSRHDRRVTKFSPLSKFSDVKNITVCFDIESYFDPEKESNQVNIPFICCASIIYNKVIGNIVDFEGRDCVAQMIEYVVDICGELNISSVELIAHNGGGYDFHYILSSMYNPAAIKNILIRNNSFISFNFAHDGVKFSVKDSYSFLLCSLANASKAFLNEETFKKTDFPHHDLKTADDLYKVYKEWSSVNTEINHVVEKEKLLITSEHIVNFTKNDKSKTLIEWSKDYCRNDVLVLSKVWLEFKNAVEDIFNCELVDQTMTLAGLSYKLFQANMPFDVELRHPNKEDYFNMREALIGGRCISVNGIYKDVLCLDVKSLYPASMAFYDQPYGSFKRVSSRPKDELGIYYVRVTPNRNNKSNFFPIRSHNKITYNNFEESTYIAWYTNVDIDIGLSEGHNIEYIPFDSYGNIGYSWSKKGKIFEKYIKDVLYKLKIKYEKQNNKVKRNIIKIIMNSLWGKFAQKWVNFEYFIKSEDDIDFESEEAYKIWDTDFMLIKKIKESTYSSKPIQNGVFTLSWARYHMKSIWDAGAKEGAECIYSDTDSIYVHKEHFKKNAKFMLNGLKVPIIGSEVGQLELECEFDKLLCAGKKQYMGFYTYFQDGKPCIKEKKRFKGIPSNYIIPELYAHLLSGADKEAKIQFLKFRREWGSVKGYIENKTVKAT
B3: I777K, F968T (protein)
chain: MDYKDKALNDLRNVYADFDSLPLDFRQILIKDRATLLQKEDVEKKILERQEDAKKYAEYLKQSEIPERISLPNIKRHKGVSISFEETSEDMVLEPRPFIFDGLNIRCFRRETIFSLKNKILNMVKESSSFKNVSRQSVSFMYFKIFNKGKVIASTKSVNIYEDKIDERLEDLCNNFDDVLKKIIDVTYGYESLFVSETYSYVIFYAKSIYFPQPRCVNNWGNNIPNILTFDSFKLFTANKNNVSCIKQCSRFLWQKDFNTLEEMIEYKNGNICIVTPQLHINDVRDIKSFNDIRLYSESPIKTFSVIDNTITYLFYFKEHLGVIFNITKSRHDRRVTKFSPLSKFSDVKNITVCFDIESYFDPEKESNQVNIPFICCASIIYNKVIGNIVDFEGRDCVAQMIEYVVDICGELNISSVELIAHNGGGYDFHYILSSMYNPAAIKNILIRNNSFISFNFAHDGVKFSVKDSYSFLLCSLANASKAFLNEETFKKTDFPHHDLKTADDLYKVYKEWSSVNTEINHVVEKEKLLITSEHIVNFTKNDKSKTLIEWSKDYCRNDVLVLSKVWLEFKNAVEDIFNCELVDQTMTLAGLSYKLFQANMPFDVELRHPNKEDYFNMREALIGGRCISVNGIYKDVLCLDVKSLYPASMAFYDQPYGSFKRVSSRPKDELGIYYVRVTPNRNNKSNFFPIRSHNKITYNNFEESTYIAWYTNVDIDIGLSEGHNIEYIPFDSYGNIGYSWSKKGKIFEKYIKDVLYKLKIKYEKQNNKVKRNVIKKIMNSLWGKFAQKWVNFEYFIKSEDDIDFESEEAYKIWDTDFMLIKKIKESTYSSKPIQNGVFTLSWARYHMKSIWDAGAKEGAECIYSDTDSIFVHKEHFKKNAKFMLNGLKVPIIGSEVGQLELECEFDKLLCAGKKQYMGFYTYFQDGKPCIKEKKRFKGIPSNYIIPELYAHLLSGADKEAKIQFLKTRREWGSVKGYIENKTVKAT
B4: M779L, F968C (protein)
chain: MDYKDKALNDLRNVYADFDSLPLDFRQILIKDRATLLQKEDVEKKILERQEDAKKYAEYLKQSEIPERISLPNIKRHKGVSISFEETSEDMVLEPRPFIFDGLNIRCFRRETIFSLKNKILNMVKESSSFKNVSRQSVSFMYFKIFNKGKVIASTKSVNIYEDKIDERLEDLCNNFDDVLKKIIDVTYGYESLFVSETYSYVIFYAKSIYFPQPRCVNNWGNNIPNILTFDSFKLFTANKNNVSCIKQCSRFLWQKDFNTLEEMIEYKNGNICIVTPQLHINDVRDIKSFNDIRLYSESPIKTFSVIDNTITYLFYFKEHLGVIFNITKSRHDRRVTKFSPLSKFSDVKNITVCFDIESYFDPEKESNQVNIPFICCASIIYNKVIGNIVDFEGRDCVAQMIEYVVDICGELNISSVELIAHNGGGYDFHYILSSMYNPAAIKNILIRNNSFISFNFAHDGVKFSVKDSYSFLLCSLANASKAFLNEETFKKTDFPHHDLKTADDLYKVYKEWSSVNTEINHVVEKEKLLITSEHIVNFTKNDKSKTLIEWSKDYCRNDVLVLSKVWLEFKNAVEDIFNCELVDQTMTLAGLSYKLFQANMPFDVELRHPNKEDYFNMREALIGGRCISVNGIYKDVLCLDVKSLYPASMAFYDQPYGSFKRVSSRPKDELGIYYVRVTPNRNNKSNFFPIRSHNKITYNNFEESTYIAWYTNVDIDIGLSEGHNIEYIPFDSYGNIGYSWSKKGKIFEKYIKDVLYKLKIKYEKQNNKVKRNVIKIILNSLWGKFAQKWVNFEYFIKSEDDIDFESEEAYKIWDTDFMLIKKIKESTYSSKPIQNGVFTLSWARYHMKSIWDAGAKEGAECIYSDTDSIFVHKEHFKKNAKFMLNGLKVPIIGSEVGQLELECEFDKLLCAGKKQYMGFYTYFQDGKPCIKEKKRFKGIPSNYIIPELYAHLLSGADKEAKIQFLKCRREWGSVKGYIENKTVKAT
B5: M779L, K934W (protein)
chain: MDYKDKALNDLRNVYADFDSLPLDFRQILIKDRATLLQKEDVEKKILERQEDAKKYAEYLKQSEIPERISLPNIKRHKGVSISFEETSEDMVLEPRPFIFDGLNIRCFRRETIFSLKNKILNMVKESSSFKNVSRQSVSFMYFKIFNKGKVIASTKSVNIYEDKIDERLEDLCNNFDDVLKKIIDVTYGYESLFVSETYSYVIFYAKSIYFPQPRCVNNWGNNIPNILTFDSFKLFTANKNNVSCIKQCSRFLWQKDFNTLEEMIEYKNGNICIVTPQLHINDVRDIKSFNDIRLYSESPIKTFSVIDNTITYLFYFKEHLGVIFNITKSRHDRRVTKFSPLSKFSDVKNITVCFDIESYFDPEKESNQVNIPFICCASIIYNKVIGNIVDFEGRDCVAQMIEYVVDICGELNISSVELIAHNGGGYDFHYILSSMYNPAAIKNILIRNNSFISFNFAHDGVKFSVKDSYSFLLCSLANASKAFLNEETFKKTDFPHHDLKTADDLYKVYKEWSSVNTEINHVVEKEKLLITSEHIVNFTKNDKSKTLIEWSKDYCRNDVLVLSKVWLEFKNAVEDIFNCELVDQTMTLAGLSYKLFQANMPFDVELRHPNKEDYFNMREALIGGRCISVNGIYKDVLCLDVKSLYPASMAFYDQPYGSFKRVSSRPKDELGIYYVRVTPNRNNKSNFFPIRSHNKITYNNFEESTYIAWYTNVDIDIGLSEGHNIEYIPFDSYGNIGYSWSKKGKIFEKYIKDVLYKLKIKYEKQNNKVKRNVIKIILNSLWGKFAQKWVNFEYFIKSEDDIDFESEEAYKIWDTDFMLIKKIKESTYSSKPIQNGVFTLSWARYHMKSIWDAGAKEGAECIYSDTDSIFVHKEHFKKNAKFMLNGLKVPIIGSEVGQLELECEFDKLLCAGKKQYMGFYTYFQDGKPCIKEWKRFKGIPSNYIIPELYAHLLSGADKEAKIQFLKFRREWGSVKGYIENKTVKAT

system: p1-encoded leu2 (Q180*); test: Large-scale p1 fluctuation tests of p1-encoded leu2 (Q180*), per-base substitution rate; type: cell-based, S. cerevisiae; settings: per-base substitution rate, p1-encoded leu2 (Q180*), large-scale fluctuation test
Text: All three TP-DNAP1 libraries were screened through small scale p1 fluctuation tests in a metastable S. cerevisiae strain, OR-Y24. OR-Y24 contains w.t. p1 and recombinant p1 that lacks w.t. TP-DNAP1, and instead, encodes a standardized fluorescence reporter of p1 copy number (Table 1), and a disabled version of the LEU2 selection marker (leu2 (Q180*)). As described previously (Ravikumar et al., 2014), leu2 (Q180*) contains a C→T mutation at base 538 in LEU2 at a site permissive to all single point mutants that generate missense mutations. Reversion to functional LEU2 can be detected on medium lacking leucine.
Large-scale fluctuation tests of p1-encoded leu2 (Q180*) were performed to precisely determine per-base substitution rates for individually cloned or isolated TP-DNAP1 variants. Large-scale p1 fluctuation tests are performed similarly to small-scale p1 fluctuation tests, with several modifications. First, large-scale p1 fluctuation tests were typically performed with 36-48 replicates. For highly error-prone TP-DNAP1s obtained from later rounds of screening, fewer replicates (3-16) were used, which is sufficient for similar precision (Foster et al., 2006). Second, p1 copy number was determined by the flow cytometry method, described below. Third, cell titers were measured for each fluctuation test to estimate the average number of cells per culture. Cell resuspensions were diluted and plated on solid SC-UH medium, and colony counts were determined after incubation at 30° C. for 2-3 days. Alternatively, cell resuspensions were diluted and subject to an event-count measurement via flow cytometry. Fourth, inoculums of highly error-prone TP-DNAP 1 s occasionally contained pre-existing mutants, despite the 1:10,000 dilution, so mutant frequencies were estimated by plating pre-cultures on solid SC-UHLW, pH 5.8 medium. Plates were incubated for 2-3 days, in parallel with cultures grown for fluctuation tests. Pre-culture mutant titers were counted to estimate the number of replicates in the fluctuation test expected to contain pre-existing mutants (n). Revertants were counted from all replicates of the fluctuation tests, counts were sorted, and n replicates with the highest counts were omitted from calculations.
To calculate per-base substitution rates, fluctuation data were analyzed by the maximum likelihood method, implemented using newton.LD.plating in rSalvador 1.7 (Zheng, 2017). Phenotypic mutation rates were calculated by normalizing to the average number of cells per culture. Phenotypic mutation rates were divided by the measured p1 copy number and by the number of ways leu2 (Q180*) can revert to LEU2 (2.33 for the ochre codon) to yield per-base substitution rates. 95% confidence intervals were similarly scaled by these factors. All data related to large-scale p1 fluctuation tests are fully described in Table 2.

Which “Mutation rate (s.p.b.)” value does the source give for B1 here?
The value was 6.67 × 10^−7 s.p.b.

B2 was tested. Which “Mutation rate (s.p.b.)” value did it give?
The value was 1.64 × 10^−7 s.p.b.

With B3 as the molecule, how does the “Mutation rate (s.p.b.)” value read?
The value was 3.19 × 10^−7 s.p.b.

Which “Mutation rate (s.p.b.)” value does the source give for B4 here?
Its value is 3.13 × 10^−10 s.p.b.

B5 was tested. Which “Mutation rate (s.p.b.)” value did it give?
Its value is 2.85 × 10^−9 s.p.b.
